Like-named read-outs stand apart in the source and are kept apart here. One block for each binder: values may come before it. Side-chain parts run from the residue outwards. [ ]: non-standard residue; d: D form. Ac‑(Lys-Ac)Lys‑Lys = branched amino acid probe attached to the ε-amino group of the lysine
Assays:
[1] = target: T1, recombinant human type 2 Formyl peptide receptor (FPR2) (human, UniProt P25090 1-351); assay: cell-based or functional assay
T1 sequence (looked up): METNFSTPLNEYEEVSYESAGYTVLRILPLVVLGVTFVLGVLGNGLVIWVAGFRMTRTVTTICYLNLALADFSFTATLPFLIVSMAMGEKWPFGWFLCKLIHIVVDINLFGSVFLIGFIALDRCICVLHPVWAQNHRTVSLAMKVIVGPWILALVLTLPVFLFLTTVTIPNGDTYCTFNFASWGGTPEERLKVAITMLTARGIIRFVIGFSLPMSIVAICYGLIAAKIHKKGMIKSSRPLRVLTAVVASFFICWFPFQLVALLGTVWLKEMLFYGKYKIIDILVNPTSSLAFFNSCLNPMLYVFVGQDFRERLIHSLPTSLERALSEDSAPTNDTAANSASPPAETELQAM

human GLP-2 receptor = target: T2, human GLP-2 receptor (human, UniProt O95838 1-553); assay: cell-based or functional assay
T2 sequence (looked up): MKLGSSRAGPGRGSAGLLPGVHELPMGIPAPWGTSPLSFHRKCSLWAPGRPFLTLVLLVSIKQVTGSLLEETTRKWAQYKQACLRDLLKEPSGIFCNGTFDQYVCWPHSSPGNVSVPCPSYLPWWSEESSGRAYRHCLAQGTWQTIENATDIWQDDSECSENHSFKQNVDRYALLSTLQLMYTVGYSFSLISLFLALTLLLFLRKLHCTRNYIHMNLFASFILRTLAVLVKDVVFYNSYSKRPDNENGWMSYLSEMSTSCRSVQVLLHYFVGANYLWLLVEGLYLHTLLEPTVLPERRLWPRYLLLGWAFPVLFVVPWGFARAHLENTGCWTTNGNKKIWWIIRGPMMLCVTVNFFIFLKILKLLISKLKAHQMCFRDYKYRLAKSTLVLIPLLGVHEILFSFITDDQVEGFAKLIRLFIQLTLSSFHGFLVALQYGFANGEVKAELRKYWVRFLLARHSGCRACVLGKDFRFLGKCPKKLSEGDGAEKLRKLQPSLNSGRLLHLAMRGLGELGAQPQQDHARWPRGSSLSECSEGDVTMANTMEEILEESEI

[2] = target: T3, MC1r (murine B16-F1 cells) (murine, UniProt Q01727 1-315); assay: cell-based or functional assay
[3] = target: T4, MC5r (human recombinant, CHO cells) (human, UniProt P33032 1-325); assay: cell-based or functional assay
[4] = target: T5, MC4r (human recombinant, CHO cells) (human, UniProt P32245 1-332); assay: cell-based or functional assay
[5] = target: T5, MC4r (human recombinant, CHO cells); assay: displacement of 125I-NDP-αMSH, CHO cells expressing human MC4r (method of Example 2, not restated)
Method: (§1) Murine B16-F1 cells expressing MCr1 are used for determination of binding affinity to and agonist activity against the MC1r. Human recombinant CHO cells expressing MC3r, MC4r or MC5r are used for determination of affinity to or agonist activity against the MC3r, MC4r and MC5r, respectively. […] The test items are tested in a concentration range of 10^-13 to 10^-5M.

[6] = target: T3, MC1r (murine B16-F1 cells); assay: displacement of 125I-NDP-αMSH, murine B16-F1 cells expressing MC1r (method of Example 2, not restated)
Method: as §1

[7] = target: T4, MC5r (human recombinant, CHO cells); assay: displacement of 125I-NDP-αMSH, CHO cells expressing human MC5r (method of Example 2, not restated)
Method: as §1

[8] = target: T6, MC3r (human recombinant, CHO cells) (human, UniProt P41968 1-323); assay: displacement of 125I-NDP-αMSH, CHO cells expressing human MC3r (method of Example 2, not restated)
T6 construct: whole, on cells
Method: as §1

[9] = target: T6, MC3r (human recombinant, CHO cells); assay: displacement of 125I-NDP-αMSH, CHO cells expressing human MC3r; affinity as a multiple of αMSH's
Method: as §1

[10] = target: T5, MC4r (human recombinant, CHO cells); assay: displacement of 125I-NDP-αMSH, CHO cells expressing human MC4r; affinity as a multiple of αMSH's
Method: as §1

[11] = target: T5, MC4r (human recombinant, CHO cells); assay: radioligand binding, CHO cells expressing human MC4r; affinity as a multiple of αMSH's
[12] = target: T6, MC3r (human recombinant, CHO cells); assay: radioligand binding, CHO cells expressing human MC3r; affinity as a multiple of αMSH's
[13] = target: T6, MC3r (human recombinant, CHO cells); assay: displacement of 125I-NDP-αMSH, human recombinant CHO cells expressing MC3r
Method: as §1

[14] = target: T4, MC5r (human recombinant, CHO cells); assay: displacement of 125I-NDP-αMSH, CHO cells expressing human MC5r; affinity as a multiple of αMSH's
Method: as §1

[15] = target: T3, MC1r (murine B16-F1 cells); assay: cell-based or functional assay; remark: listed apart in the source
[16] = target: T4, MC5r (human recombinant, CHO cells); assay: cell-based or functional assay; remark: listed apart in the source
[17] = target: T6, MC3r (human recombinant, CHO cells); assay: cell-based or functional assay
[18] = target: T5, MC4r (human recombinant, CHO cells); assay: cell-based or functional assay; remark: listed apart in the source
[19] = target: T3, MC1r (murine B16-F1 cells); assay: displacement of 125I-NDP-αMSH, murine B16-F1 cells expressing MC1r
Method: as §1

[20] = target: T3, MC1r (murine B16-F1 cells); assay: displacement of 125I-NDP-αMSH, murine B16-F1 cells expressing MC1r; affinity as a multiple of αMSH's
Method: as §1

[21] = target: T4, MC5r (human recombinant, CHO cells); assay: displacement of 125I-NDP-αMSH, human recombinant CHO cells expressing MC5r
Method: as §1

[22] = target: T5, MC4r (human recombinant, CHO cells); assay: displacement of 125I-NDP-αMSH, human recombinant CHO cells expressing MC4r
Method: as §1

[23] = target: T3, MC1r (murine B16-F1 cells); assay: radioligand binding, murine B16-F1 cells expressing MC1r; affinity as a multiple of αMSH's

T5 sequence (P32245 whole entry): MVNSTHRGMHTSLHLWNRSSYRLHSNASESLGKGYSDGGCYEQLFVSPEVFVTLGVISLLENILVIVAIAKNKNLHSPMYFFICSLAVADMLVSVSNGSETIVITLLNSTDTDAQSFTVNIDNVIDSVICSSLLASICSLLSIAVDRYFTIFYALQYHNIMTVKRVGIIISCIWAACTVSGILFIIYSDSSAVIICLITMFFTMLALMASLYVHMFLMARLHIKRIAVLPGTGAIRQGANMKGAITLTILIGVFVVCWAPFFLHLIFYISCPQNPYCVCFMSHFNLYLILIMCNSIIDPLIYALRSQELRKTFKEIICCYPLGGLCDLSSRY
T6 sequence (P41968 whole entry): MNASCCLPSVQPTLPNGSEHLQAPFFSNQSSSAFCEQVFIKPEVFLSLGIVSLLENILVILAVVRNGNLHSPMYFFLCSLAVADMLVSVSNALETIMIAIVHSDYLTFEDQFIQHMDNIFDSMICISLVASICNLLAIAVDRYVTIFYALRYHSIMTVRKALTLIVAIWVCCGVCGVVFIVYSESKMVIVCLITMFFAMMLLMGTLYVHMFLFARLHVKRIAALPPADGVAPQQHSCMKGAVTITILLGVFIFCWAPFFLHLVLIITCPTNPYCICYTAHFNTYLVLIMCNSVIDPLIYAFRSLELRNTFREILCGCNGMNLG
T3 sequence (Q01727 whole entry): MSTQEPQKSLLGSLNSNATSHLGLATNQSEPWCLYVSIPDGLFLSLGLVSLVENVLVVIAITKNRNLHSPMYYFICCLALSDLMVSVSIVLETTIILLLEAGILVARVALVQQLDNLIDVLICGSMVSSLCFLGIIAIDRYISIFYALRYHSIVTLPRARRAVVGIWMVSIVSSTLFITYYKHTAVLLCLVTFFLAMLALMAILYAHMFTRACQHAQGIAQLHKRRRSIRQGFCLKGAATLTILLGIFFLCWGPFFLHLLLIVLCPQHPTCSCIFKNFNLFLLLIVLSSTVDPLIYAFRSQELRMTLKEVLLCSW
T4 sequence (P33032 whole entry): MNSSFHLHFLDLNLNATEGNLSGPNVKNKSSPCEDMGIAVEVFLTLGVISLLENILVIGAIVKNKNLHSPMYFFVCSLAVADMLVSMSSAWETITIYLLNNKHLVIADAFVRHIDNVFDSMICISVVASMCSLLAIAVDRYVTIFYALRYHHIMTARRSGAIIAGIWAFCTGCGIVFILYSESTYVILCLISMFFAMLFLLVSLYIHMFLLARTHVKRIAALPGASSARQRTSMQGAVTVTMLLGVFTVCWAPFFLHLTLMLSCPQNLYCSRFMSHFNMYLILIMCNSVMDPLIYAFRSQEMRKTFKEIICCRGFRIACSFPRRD

EC50, agonist activity (aequorin light emission) [1]: 1560 nM
Binder: Ac-AMVSEFLK(Ac‑(Lys-Ac)Lys‑Lys)QAW-NH2

EC50 (nM), cAMP production (HTRF) (human GLP-2 receptor): 0.36 nM
Binder: H-HADGSFSDEMNTILDNLAARDFINWLIQTKITDR-OH [GLP-2 (1-34) control peptide: …]

EC50, cAMP accumulation (agonist activity) [2]: 68 nM
EC50, cAMP accumulation (agonist activity) [3]: 555 nM
EC50, cAMP accumulation (agonist activity) [4]: 252 nM
Ki [5]: 150 nM
Ki [6]: 3.8 nM
Ki [7]: 215 nM
Ki [8]: 15 nM
B1: γ-MSH Analogue 1: Ac-(Ac-Lys-Lys)Lys-Tyr-Val-Met-Gly-His-Phe-Arg-DTrp-Asp-Arg-Phe-Gly-NH2 (peptide)
peptide: KYVMGHFRWDRFG
modifications: alpha-amino group of Lys1 acetylated; Ac-Lys-Lys attached to the epsilon-amino group of Lys1; D-Trp at position 9; C-terminal amide

MCr binding relative to Control peptide 1 (αMSH) [9]: 41 fold
MCr binding relative to Control peptide 1 (αMSH) [10]: 47 fold
B2: Analogue 3 (Example 2): Ac-(Ac-Lys-Lys)Lys-Ser-Tyr-Ser-Nle-Glu-His-DPhe-Arg-Trp-Gly-Lys-Pro-Val-NH2 (peptide)
peptide: KSYSXEHFRWGKPV
modifications: alpha-amino group of Lys1 acetylated; Ac-Lys-Lys attached to the epsilon-amino group of Lys1; Nle at position 5 (written X); D-Phe at position 8; C-terminal amide
notes: BAP-modified α-MSH analogue; X = norleucine

MCr binding affinity relative to αMSH [11]: 2.9 fold
MCr binding affinity relative to αMSH [12]: 4.6 fold
B3: Analogue 6 (Example 3): Ac-(Ac-Lys-Lys)Lys-Tyr-Val-Nle-Gly-His-Phe-Arg-Trp-Asp-Arg-Phe-Gly-NH2 (peptide)
peptide: KYVXGHFRWDRFG
modifications: alpha-amino group of Lys1 acetylated; Ac-Lys-Lys attached to the epsilon-amino group of Lys1; Nle at position 4 (written X); C-terminal amide
notes: BAP-modified γ-MSH analogue; X = norleucine

Ki [13]: 24 nM
MCr binding relative to Control peptide 1 (αMSH) [14]: 2 fold
EC50, cAMP accumulation (agonist activity) [15]: 8.9 nM
EC50, cAMP accumulation (agonist activity) [16]: 625 nM
EC50, cAMP accumulation (agonist activity) [17]: 53 nM
EC50, cAMP accumulation (agonist activity) [18]: 18 nM
Ki [19]: 1.2 nM
MCr binding relative to Control peptide 1 (αMSH) [20]: 4 fold
Ki [21]: 193 nM
Ki [22]: 26 nM
B4: α-MSH Analogue 1: Ac-(Ac-Lys-Lys)Lys-Ser-Tyr-Ser-Met-Glu-His-Phe-Arg-Trp-Gly-Lys-Pro-Val-NH2 (peptide)
peptide: KSYSMEHFRWGKPV
modifications: alpha-amino group of Lys1 acetylated; Ac-Lys-Lys attached to the epsilon-amino group of Lys1 (branched amino acid probe Ac-(Ac-Lys-Lys)Lys-); C-terminal amide

MCr binding affinity relative to αMSH [11]: 2.8 fold
MCr binding affinity relative to αMSH [23]: 1.9 fold
MCr binding affinity relative to αMSH [12]: 38 fold
B5: Analogue 5 (Example 3): Ac-(Ac-Lys-Lys)Lys-Tyr-Val-Nle-Gly-His-Phe-Arg-DTrp-Asp-Arg-Phe-Gly-NH2 (peptide)
peptide: KYVXGHFRWDRFG
modifications: alpha-amino group of Lys1 acetylated; Ac-Lys-Lys attached to the epsilon-amino group of Lys1; Nle at position 4 (written X); D-Trp at position 9; C-terminal amide
notes: as for B3

MCr binding affinity relative to αMSH [11]: 37 fold
MCr binding affinity relative to αMSH [12]: 46 fold
B6: Analogue 7 (Example 3): Ac-(Ac-Lys-Lys)Lys-Tyr-Val-Nle-Gly-His-DPhe-Arg-Trp-Asp-Arg-Phe-Gly-NH2 (peptide)
peptide: KYVXGHFRWDRFG
modifications: alpha-amino group of Lys1 acetylated; Ac-Lys-Lys attached to the epsilon-amino group of Lys1; Nle at position 4 (written X); D-Phe at position 7; C-terminal amide
notes: as for B3

MCr binding affinity relative to αMSH [11]: 10.7 fold
MCr binding affinity relative to αMSH [23]: 7.3 fold
MCr binding affinity relative to αMSH [12]: 37 fold
B7: Analogue 8 (Example 3): Ac-(Ac-Lys-Lys)Lys-Tyr-Val-Nle-Gly-His-DPhe-Arg-DTrp-Asp-Arg-Phe-Gly-NH2 (peptide)
peptide: KYVXGHFRWDRFG
modifications: alpha-amino group of Lys1 acetylated; Ac-Lys-Lys attached to the epsilon-amino group of Lys1; Nle at position 4 (written X); D-Phe at position 7; D-Trp at position 9; C-terminal amide
notes: as for B3

MCr binding relative to Control peptide 1 (αMSH) [9]: 42 fold
MCr binding relative to Control peptide 1 (αMSH) [10]: 53 fold
MCr binding relative to Control peptide 1 (αMSH) [20]: 9.4 fold
Binder: Ac-K([Lys-Lys-Ac])SSIISH[dF]RWGKPV-NH2 (BAP-modified α-MSH analogue) [Analogue 4 (Example 2): Ac-(Ac-Lys-Lys)Lys-Ser-Ser-Ile-Ile-Ser-His-DPhe-Arg-Trp-Gly-Lys-Pro-Val-NH2]

MCr binding relative to Control peptide 1 (αMSH) [9]: 3.3 fold
MCr binding relative to Control peptide 1 (αMSH) [10]: 8.5 fold
B8: Analogue 2 (Example 2): Ac-(Ac-Lys-Lys)Lys-Ser-Tyr-Ser-Met-Glu-His-Phe-Arg-Trp-Gly-Lys-Pro-(D-Val)-NH2 (peptide)
peptide: KSYSMEHFRWGKPV
modifications: alpha-amino group of Lys1 acetylated; Ac-Lys-Lys attached to the epsilon-amino group of Lys1; D-Val at position 14; C-terminal amide
notes: BAP-modified α-MSH analogue

From patent US9950027 (TXP PHARMA, dated 2018)
